Test results reported in publication PMC5156392, “Structure and Mechanism of Staphylococcus aureus TarS, the Wall Teichoic Acid β-glycosyltransferase Involved in Methicillin Resistance” (PLoS Pathogens, 2016).

Experiments:
[1] = test system: CC(=O)N[C@H]1[C@@H](OP(=O)(O)OP(=O)(O)OC[C@H]2O[C@@H](n3ccc(=O)[nH]c3=O)[C@H](O)[C@@H]2O)O[C@H](CO)[C@@H](O)[C@@H]1O; assay: purified protein; details: donor hydrolysis reaction without polyRboP acceptor; varied UDP-GlcNAc
crystal structure = molecular target: the molecule itself; assay: crystal structure
[2] = molecular target: the molecule itself; assay: SEC-MALS; Superdex 200 HR 10/30, 30 mM Hepes pH 7.3, 500 mM NaCl, 5% glycerol; full-length TarS run at 25 μM

Molecule | Km [1] [µM] | other results
TarS1-349 (Staphylococcus aureus subsp. aureus Mu50) | 21 ± 2 | 
full-length TarS (TarS 1-573; wild-type) (Staphylococcus aureus subsp. aureus Mu50) | 45 ± 3 | 
TarS_(217-573) (domain or fragment, source: limited thermolysin proteolysis of purified full-length TarS (from E. coli Rosetta (DE3)), crystallised directly) VSPEDFYEVMRLIAVEILNADLEEAHKDQILAEFLNRHFSFSRTNGFSLKVKLEEQPQWINALGDFIQAVPERVDALVMSKLRPLLHYARAKDIDNYRTVEESYRQGQYYRFDIVDGKLNIQFNEGEPYFEGIDIAKPKVKMTAFKFDNHKIVTELTLNEFMIGEGHYDVRLKLHSRNKKHTMYVPLSVNANKQYRFNIMLEDIKAYLPKEKIWDVFLEVQIGTEVFEVRVGNQRNKYAYTAETSALIHLNNDFYRLTPYFTKDFNNISLYFTAITLTDSISMKLKGKNKIILTGLDRGYVFEEGMASVVLKDDMIMGMLSQTSENEVEILLSKDIKKRDFKNIVKLNTAHMTYSLK |  | binding result (crystal structure): binds
Staphylococcus aureus TarS, full-length protein (1-573) (enzyme, also called full-length TarS; wild-type TarS; source: E. coli Rosetta (DE3), pET41b, purified (Heparin HP, Superdex 200)) MMKFSVIVPTYNSEKYITELLNSLAKQDFPKTEFEVVVVDDCSTDQTLQIVEKYRNKLNLKVSQLETNSGGPGKPRNVALKQAEGEFVLFVDSDDYINKETLKDAAAFIDEHHSDVLLIKMKGVNGRGVPQSMFKETAPEVTLLNSRIIYTLSPTKIYRTALLKDNDIYFPEELKSAEDQLFTMKAYLNANRISVLSDKAYYYATKREGEHMSSAYVSPEDFYEVMRLIAVEILNADLEEAHKDQILAEFLNRHFSFSRTNGFSLKVKLEEQPQWINALGDFIQAVPERVDALVMSKLRPLLHYARAKDIDNYRTVEESYRQGQYYRFDIVDGKLNIQFNEGEPYFEGIDIAKPKVKMTAFKFDNHKIVTELTLNEFMIGEGHYDVRLKLHSRNKKHTMYVPLSVNANKQYRFNIMLEDIKAYLPKEKIWDVFLEVQIGTEVFEVRVGNQRNKYAYTAETSALIHLNNDFYRLTPYFTKDFNNISLYFTAITLTDSISMKLKGKNKIILTGLDRGYVFEEGMASVVLKDDMIMGMLSQTSENEVEILLSKDIKKRDFKNIVKLNTAHMTYSLK |  | stoichiometry N [2]: 3
